Laboratory results reported in PMC3390244.

Target: human transferrin receptor (hTfR, CD71) (human, UniProt P02786 89-760)
Test: filter binding

Chain of human transferrin receptor (hTfR, CD71) (P02786 89-760): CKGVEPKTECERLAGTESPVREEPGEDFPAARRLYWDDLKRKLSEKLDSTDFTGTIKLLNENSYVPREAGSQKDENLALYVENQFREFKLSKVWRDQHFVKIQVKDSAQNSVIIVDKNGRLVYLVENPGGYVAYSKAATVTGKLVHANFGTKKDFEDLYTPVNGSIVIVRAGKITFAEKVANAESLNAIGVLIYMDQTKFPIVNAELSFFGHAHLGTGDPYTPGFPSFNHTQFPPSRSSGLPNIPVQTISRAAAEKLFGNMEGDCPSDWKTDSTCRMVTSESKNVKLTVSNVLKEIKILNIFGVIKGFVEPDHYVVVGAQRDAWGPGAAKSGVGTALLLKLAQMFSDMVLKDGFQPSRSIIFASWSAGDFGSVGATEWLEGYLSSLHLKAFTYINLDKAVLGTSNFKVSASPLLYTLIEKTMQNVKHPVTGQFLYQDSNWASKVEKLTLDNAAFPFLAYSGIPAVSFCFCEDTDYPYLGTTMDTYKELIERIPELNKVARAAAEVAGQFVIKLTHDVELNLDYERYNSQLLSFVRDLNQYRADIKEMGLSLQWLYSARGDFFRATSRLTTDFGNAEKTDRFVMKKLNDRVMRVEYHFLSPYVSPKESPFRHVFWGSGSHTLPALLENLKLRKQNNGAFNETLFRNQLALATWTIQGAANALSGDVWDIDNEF

GGGGGAUCAAUCCAAGGGACCCGGAAACGCUCCCUUACACCCC (structured_RNA, 2'-fluoro C and U; 3' inverted dT; 5' thiol) [c2.min] was tested, and the Kd was 102 nM.
